Assays:
[1] = target: the molecule itself; test: SEC-SAXS; 50 µL of CrRPI1 at 10 mg/mL on BioSEC-3 300 column in buffer C in series with the SAXS capillary (SWING, SOLEIL); molecular weight from scattering, curve fitted to the crystallographic dimer
[2] = target: the molecule itself; test: SEC; purified CrRPI1 on two different gel filtration matrices (Superose 6 increase; BioSEC-3 300), buffer C (20 mM Tris-HCl pH 7.9, 100 mmol/L NaCl); oligomer state from apparent molecular weight

B1: Chlamydomonas reinhardtii chloroplastic ribose-5-phosphate isomerase 1 (CrRPI1) (enzyme, UniProt A8IRQ1 23-269, looked up)
chain: MAAPVSTQLSQDELKKQAAWKAVEYVKSGMVVGLGTGSTAAFAVDRIGQLLKEGKLQNIVGVPTSIRTYEQALSLGIPLATLDEQPKLDVAIDGADEVDPNLDVVKGRGGALLREKMVEMASAKFVCIVDDSKLVEGLGGSKLAMPVEIVQFCHKYTLQRLANLPEVKGCEAKLRMNGDKPYVTDNSNYIVDLYFQTPIKDSQAASKAILGLDGVVDHGLFLDMVDVCIIAGATGVTVQERPNPKKH
notes: residues numbered according to UniProtKB entry A8IRQ1; Theoretical Mw of the recombinant monomer is printed as 27,551 Da; The forward primer introduces an NcoI site at the start codon; source: E. coli BL21(DE3) Rosetta-2 pLysS, purified (NiNTA)
[1]
  stoichiometry N: 1.78 to 2
[2]
  stoichiometry N: 2
